The source of these data is US20200109212A1 (INTERVET, published 2020).

The target in experiment [1] is T1, canine PD-L1 extracellular domain-human IgG1 Fc fusion protein (canine).
T1 construct: Expressed in HEK 293 cells and purified on Protein A; also called canine PD-L1-hFc fusion protein; cPD-L1-hFc
As to the kind of experiment: ELISA, plate coated with canine PD-L1-hFc, two-fold dilutions of mAb, detection with HRP goat anti-mouse IgG, OD 650/490. As for the experimental part:
Hybridoma cells in the cell chamber were expanded to approximately 2.5×10⁷ cells/mL over 3-7 days. Then, 10 mL of cell suspension was harvested from the cell chamber and replaced with fresh media to allow for re-expansion of cells and subsequent harvests. This procedure was repeated as necessary to obtain adequate amounts of mAb from each hybridoma clone. Harvested cell suspensions were centrifuged and the supernatants were filtered through 0.2 micron filter membranes. For antibody purification, each clone's supernatant was purified using a Protein G Sepharose 4 Fast flow 5 mL column (GE Healthcare) by gravity flow. After washing with Tris-EDTA (TE) buffer pH 8.0, bound antibodies were eluted using 0.1 M glycine buffer, pH 2.7, followed by pH neutralization using 1 M Tris, pH 8.0. Antibodies were concentrated and buffer exchanged into phosphate-buffered saline (PBS) using Centriprep YM-10.10 kDa NMWL centrifugal filter units (Millipore). Antibody concentrations were quantified using spectrophotometry. […] The color reaction is allowed to develop for 5-20 minutes at 37° C. prior to measuring absorbance at 650 nm.
On the technique in general: ELISA stands for enzyme-linked immunosorbent assay.

Experiment [2] has as its target T1, canine PD-L1 extracellular domain-human …. Briefly: cell-based ELISA (CELISA): mAb pre-incubated with cPD-L1-hFc, then added to CHO cells expressing canine PD-1; bound cPD-L1-hFc detected with anti-human Fc-HRP, OD 450-620 nm; blocked partner: canine PD-1. Here is the method: Ligand blockade was confirmed using this assay in conjunction with canine PD-L1/h Fec protein as follows: [0233] 1. Seed cPD-1 CHO cells in 96-well plates and grow the cells to 95-100% confluent. [0234] General guidelines for plating CHO cells, [0235] on day −3: […] (1×10⁵c/mL) [0236] −2: 2×10⁴ c/well ([…]) [0237] −1: 4×10⁴ c/well (4×10⁵ c/mL) [0238] 2. 3-fold dilute anti-cPDL1 mAbs in CHO media, starting at 30 μg/mL, 100 μL/well. Add cPD-L1-hFc to 4 μg/ml in CHO media, 100 μL/well, co-incubate in a dilution plate at 37° C., 5% CO₂ with shaking for 60 min. [0239] 3. Aspirate cell culture media from the cell coated plates, wash the plates 3×PBS+0.05% Tween20 and 1×CHO media. [0240] 4. Add the co-incubated cPD-L1 mAbs/PD-L1 Fc from the dilution plate to the cell coated plate. 100 uL/well. Incubate at 37° C., 5% CO₂ with shaking for 60 min. [0241] 5. Wash the plates 6×PBS+0.05% Tween 20 (using manual wash protocol). [0242] 6. Add Anti-Human Fc-HRP (Calbiochem) (1:2500) in CHO media, 100 ul/well, incubate 30-60 min at 37° C./5% CO₂. [0243] 7. Wash the plates 5×PBS+0.05% Tween20 (using manual wash protocol). [0244] 8. Add 100 μl/well TMB mircowell substrate. Incubate at room temp for 10 minutes. Use one step substrate from Pierce. [0245] 9. Stop with 100 μl/well 1.5M Phosphoric acid. [0246] 10. Measure A450-A620 on the ELISA reader.

T1 sequence (chain, as listed by the source limits assumed): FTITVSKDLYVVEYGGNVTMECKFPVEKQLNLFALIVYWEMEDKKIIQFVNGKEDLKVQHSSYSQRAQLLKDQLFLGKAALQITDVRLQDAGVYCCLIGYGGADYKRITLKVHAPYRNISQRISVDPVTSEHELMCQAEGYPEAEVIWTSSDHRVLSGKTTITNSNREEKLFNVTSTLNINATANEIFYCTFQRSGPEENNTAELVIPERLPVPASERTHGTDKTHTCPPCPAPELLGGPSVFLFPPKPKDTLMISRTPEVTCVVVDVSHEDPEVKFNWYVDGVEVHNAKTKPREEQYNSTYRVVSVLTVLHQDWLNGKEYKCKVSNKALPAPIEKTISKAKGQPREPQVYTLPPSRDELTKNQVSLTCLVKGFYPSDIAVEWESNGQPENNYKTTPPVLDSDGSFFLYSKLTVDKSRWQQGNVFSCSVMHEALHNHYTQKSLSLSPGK

B1: mouse anti-canine PD-L1 monoclonal antibody 5F12 (antibody, V domains shown)
VH: QVQLQQSGPELVKPGASVKISCKASGYTFTDYYMNWVKQRPGQGLEWIGWIFPGSGATYYNERFMGKATLTVDKSSNTAYMLFSSLTSEDSAVYFCLRSDWDVGDFWGQGTTLTVSS
VL: DIVMTQAAFSNPVTLGTSASISCRSSRSLLHTNGITYLSWFLQKPGQSPQLLIYQMSNLASGVPDRFSSSGSGTDFTLRISRVEAEDVGIYYCAQTLGLPRTFGGGTKLEIK
notes: also called mAb 5F12; Anti-PDL-1 5F12
Regarding B1, the binding result in experiment [1] was “binds”.

B2: mouse anti-canine PD-L1 monoclonal antibody 4F9 (antibody, V domains shown)
VH: EVQLVESGGGLVKPGGSLKLSCAASGFTFSSYAMSWVRQTPDKRLEWVATISDGGSYTHYPDNLMGRFTISRDNAKNNLYLQMSHLKSDDTAMYYCARESYDGYYVANWGQGTLVTVSA
VL: DIVLTQSPATLSVNPGDSVSLSCRASQSISNNLHWYQQKSHESPRLLIKYASQSISGIPSRFSGSGSGTDFTLSINSVETEDFGMYFCQQSNSWPQTFGGGTKLEIK
notes: also called mAb 4F9
On to B2, for which, in experiment [2], the “IC50 (read off the curve)” value is approximately 20 nM.
